According to US20240261333A1, “NOVEL TARGETS FOR ENHANCING ANTI-TUMOR IMMUNITY” (THE BROAD INSTITUTE, INC., priority 2021, published 2024):

Assays:
RPL28 (human) = RPL28 (human) (UniProt P46779); assay: co-IP with anti-FLAG, C-FLAG B3GNT2, mass spectrometry
RACK1 (human) = RACK1 (human) (UniProt P63244); assay: as above
TM9SF1 (human) = TM9SF1 (human) (UniProt O15321); assay: as above
RPS27A (human) = RPS27A (human) (UniProt P62979); assay: as above
GEMIN4 (human) = GEMIN4 (human) (UniProt P57678); assay: as above
EIF3A (human) = EIF3A (human) (UniProt Q14152); assay: as above
XPO1 (human) = XPO1 (human) (UniProt O14980); assay: as above
LCN1 (human) = LCN1 (human) (UniProt P31025); assay: as above
SERPINB3 (human) = SERPINB3 (human) (UniProt P29508); assay: as above
Sequence of SERPINB3 (human) (P29508 whole entry): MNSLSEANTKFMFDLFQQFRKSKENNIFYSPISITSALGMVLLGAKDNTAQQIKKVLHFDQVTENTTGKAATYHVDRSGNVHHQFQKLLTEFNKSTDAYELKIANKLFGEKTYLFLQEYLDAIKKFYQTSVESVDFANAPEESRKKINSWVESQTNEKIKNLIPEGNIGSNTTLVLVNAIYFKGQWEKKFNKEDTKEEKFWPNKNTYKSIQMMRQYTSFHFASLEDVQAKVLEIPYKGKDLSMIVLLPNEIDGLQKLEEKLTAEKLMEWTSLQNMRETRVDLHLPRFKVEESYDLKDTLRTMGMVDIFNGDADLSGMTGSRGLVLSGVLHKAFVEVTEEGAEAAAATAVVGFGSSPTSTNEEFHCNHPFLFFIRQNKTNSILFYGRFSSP

RPL8 (human) = RPL8 (human) (UniProt P62917); assay: as above
RUVBL2 (human) = RUVBL2 (human) (UniProt Q9Y230); assay: as above
Sequence of RUVBL2 (human) (Q9Y230 2-463 limits assumed): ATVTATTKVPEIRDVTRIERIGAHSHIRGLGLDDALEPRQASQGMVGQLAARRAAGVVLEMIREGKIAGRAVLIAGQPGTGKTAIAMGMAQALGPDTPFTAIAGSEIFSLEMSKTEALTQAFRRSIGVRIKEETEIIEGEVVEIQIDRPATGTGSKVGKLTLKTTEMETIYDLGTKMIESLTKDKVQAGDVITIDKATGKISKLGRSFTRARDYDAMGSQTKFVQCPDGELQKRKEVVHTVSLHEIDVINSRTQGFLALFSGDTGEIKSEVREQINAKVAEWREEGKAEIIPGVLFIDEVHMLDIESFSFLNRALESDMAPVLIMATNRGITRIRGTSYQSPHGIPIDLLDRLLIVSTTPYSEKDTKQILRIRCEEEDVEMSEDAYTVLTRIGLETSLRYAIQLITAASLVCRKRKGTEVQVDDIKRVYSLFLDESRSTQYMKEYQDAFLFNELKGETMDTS

SPARC (human) = SPARC (human) (UniProt P09486); assay: as above
TTC13 (human) = TTC13 (human) (UniProt Q8NBP0); assay: as above
LUC7L3 (human) = LUC7L3 (human) (UniProt O95232); assay: as above
MMP14 (human) = MMP14 (human) (UniProt P50281); assay: as above
RPS24 (human) = RPS24 (human) (UniProt P62847); assay: as above
Sequence of RPS24 (human) (P62847 other isoform, or with tags, fused parts or gaps limits assumed): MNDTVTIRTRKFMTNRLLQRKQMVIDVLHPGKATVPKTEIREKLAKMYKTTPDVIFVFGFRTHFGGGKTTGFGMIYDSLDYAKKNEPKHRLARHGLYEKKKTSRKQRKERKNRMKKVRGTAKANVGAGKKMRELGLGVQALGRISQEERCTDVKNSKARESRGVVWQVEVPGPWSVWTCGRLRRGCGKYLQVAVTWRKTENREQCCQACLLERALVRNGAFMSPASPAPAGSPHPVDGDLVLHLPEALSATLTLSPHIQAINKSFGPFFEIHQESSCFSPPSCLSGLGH

TELO2 (human) = TELO2 (human) (UniProt Q9Y4R8); assay: as above
TBL2 (human) = TBL2 (human) (UniProt Q9Y4P3); assay: as above
Sequence of TBL2 (human) (Q9Y4P3 whole entry): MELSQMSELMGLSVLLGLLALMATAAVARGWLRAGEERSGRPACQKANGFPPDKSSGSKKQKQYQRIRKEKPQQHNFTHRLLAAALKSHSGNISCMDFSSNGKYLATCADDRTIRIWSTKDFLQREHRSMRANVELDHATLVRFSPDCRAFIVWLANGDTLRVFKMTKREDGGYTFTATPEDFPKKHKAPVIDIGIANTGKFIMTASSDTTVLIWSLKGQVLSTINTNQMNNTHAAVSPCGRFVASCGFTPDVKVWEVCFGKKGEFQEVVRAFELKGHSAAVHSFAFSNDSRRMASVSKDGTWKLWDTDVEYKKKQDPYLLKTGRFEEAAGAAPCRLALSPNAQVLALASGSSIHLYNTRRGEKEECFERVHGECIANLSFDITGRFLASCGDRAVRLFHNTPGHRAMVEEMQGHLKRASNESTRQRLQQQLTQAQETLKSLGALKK

PURA (human) = PURA (human) (UniProt Q00577); assay: as above
RPL7A (human) = RPL7A (human) (UniProt P62424); assay: as above
ATP5F1B = ATP5F1B (UniProt P06576); assay: co-IP with mouse IgG control, mass spectrometry; lysate of N-FLAG B3GNT2 cells
YWHAZ = YWHAZ (UniProt P63104); assay: as above
RPN1 = RPN1 (UniProt P04843); assay: as above
Sequence of RPN1 (P04843 24-607 limits assumed): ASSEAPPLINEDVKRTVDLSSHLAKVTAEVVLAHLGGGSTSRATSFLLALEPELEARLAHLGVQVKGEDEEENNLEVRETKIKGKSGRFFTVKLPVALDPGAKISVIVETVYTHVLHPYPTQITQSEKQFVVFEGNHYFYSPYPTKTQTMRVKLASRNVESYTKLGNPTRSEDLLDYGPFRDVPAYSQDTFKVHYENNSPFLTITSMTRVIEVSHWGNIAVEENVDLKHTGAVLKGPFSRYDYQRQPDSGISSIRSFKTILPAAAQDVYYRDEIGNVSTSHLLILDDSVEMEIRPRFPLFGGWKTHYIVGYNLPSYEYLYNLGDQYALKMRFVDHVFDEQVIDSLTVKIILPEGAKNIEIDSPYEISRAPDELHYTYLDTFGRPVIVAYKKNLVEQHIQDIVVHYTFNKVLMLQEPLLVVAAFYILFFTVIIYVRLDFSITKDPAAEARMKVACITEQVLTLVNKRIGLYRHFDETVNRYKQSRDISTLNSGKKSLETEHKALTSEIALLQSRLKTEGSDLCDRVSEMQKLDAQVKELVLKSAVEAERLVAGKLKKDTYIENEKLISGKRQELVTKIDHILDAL

STRAP = STRAP (UniProt Q9Y3F4); assay: as above
Sequence of STRAP (Q9Y3F4 whole entry): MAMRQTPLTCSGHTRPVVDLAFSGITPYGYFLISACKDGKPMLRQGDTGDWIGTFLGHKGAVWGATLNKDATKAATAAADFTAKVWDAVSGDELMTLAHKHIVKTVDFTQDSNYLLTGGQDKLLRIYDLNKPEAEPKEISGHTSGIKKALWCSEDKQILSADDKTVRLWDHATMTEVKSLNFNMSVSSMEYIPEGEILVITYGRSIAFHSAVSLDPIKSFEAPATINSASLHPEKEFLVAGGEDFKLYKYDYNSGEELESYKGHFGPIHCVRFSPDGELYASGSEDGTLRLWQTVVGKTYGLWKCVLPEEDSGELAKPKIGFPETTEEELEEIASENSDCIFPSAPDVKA

SERPINB12 = SERPINB12 (UniProt Q96P63); assay: as above
Sequence of SERPINB12 (Q96P63 other isoform, or with tags, fused parts or gaps limits assumed): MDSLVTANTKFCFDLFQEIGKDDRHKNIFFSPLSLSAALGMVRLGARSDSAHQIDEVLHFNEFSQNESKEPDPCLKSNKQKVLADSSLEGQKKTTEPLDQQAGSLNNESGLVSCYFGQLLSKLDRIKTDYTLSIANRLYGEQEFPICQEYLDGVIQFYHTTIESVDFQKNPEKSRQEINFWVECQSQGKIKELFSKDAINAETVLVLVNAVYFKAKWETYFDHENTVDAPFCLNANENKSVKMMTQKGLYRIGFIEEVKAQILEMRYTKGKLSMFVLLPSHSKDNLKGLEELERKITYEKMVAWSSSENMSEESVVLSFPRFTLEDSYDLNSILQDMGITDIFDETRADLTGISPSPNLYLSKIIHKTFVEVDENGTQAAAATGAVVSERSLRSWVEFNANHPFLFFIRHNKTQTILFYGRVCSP

RPL35A = RPL35A (UniProt P18077); assay: as above
CTSD = CTSD (UniProt P07339); assay: as above
UBA52 = UBA52 (UniProt P62987); assay: as above
RPL31 = RPL31 (UniProt P62899); assay: as above
RPS11 = RPS11 (UniProt P62280); assay: as above
ATXN2L = ATXN2L (UniProt Q8WWM7); assay: as above
Sequence of ATXN2L (Q8WWM7 whole entry): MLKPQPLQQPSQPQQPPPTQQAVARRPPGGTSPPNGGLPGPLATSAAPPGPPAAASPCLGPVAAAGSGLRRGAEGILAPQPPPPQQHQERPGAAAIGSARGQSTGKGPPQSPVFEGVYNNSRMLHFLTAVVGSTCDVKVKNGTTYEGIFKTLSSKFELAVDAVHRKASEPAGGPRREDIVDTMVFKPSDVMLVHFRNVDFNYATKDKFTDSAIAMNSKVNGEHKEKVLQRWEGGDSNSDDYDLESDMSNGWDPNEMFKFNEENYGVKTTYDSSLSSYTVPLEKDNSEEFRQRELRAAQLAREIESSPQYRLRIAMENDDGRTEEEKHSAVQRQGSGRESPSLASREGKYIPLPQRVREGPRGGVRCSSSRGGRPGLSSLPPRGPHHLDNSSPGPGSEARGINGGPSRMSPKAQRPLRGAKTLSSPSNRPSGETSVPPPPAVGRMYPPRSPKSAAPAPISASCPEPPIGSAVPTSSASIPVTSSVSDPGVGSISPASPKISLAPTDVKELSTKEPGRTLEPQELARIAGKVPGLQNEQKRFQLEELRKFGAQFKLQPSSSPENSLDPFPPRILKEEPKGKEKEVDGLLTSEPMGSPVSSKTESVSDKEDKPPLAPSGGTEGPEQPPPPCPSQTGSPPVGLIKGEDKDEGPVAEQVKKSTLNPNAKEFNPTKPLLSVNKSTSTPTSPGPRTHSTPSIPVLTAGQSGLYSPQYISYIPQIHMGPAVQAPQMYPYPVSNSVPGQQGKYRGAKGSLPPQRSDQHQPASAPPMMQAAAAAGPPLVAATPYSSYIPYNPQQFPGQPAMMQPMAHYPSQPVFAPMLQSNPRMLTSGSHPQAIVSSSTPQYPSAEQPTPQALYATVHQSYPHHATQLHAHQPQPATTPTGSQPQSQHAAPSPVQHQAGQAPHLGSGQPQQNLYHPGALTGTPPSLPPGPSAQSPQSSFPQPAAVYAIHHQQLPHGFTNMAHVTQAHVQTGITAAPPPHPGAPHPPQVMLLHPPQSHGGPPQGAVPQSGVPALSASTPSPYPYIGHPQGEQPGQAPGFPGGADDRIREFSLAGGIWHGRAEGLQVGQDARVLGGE

PCMT1 = PCMT1 (UniProt P22061); assay: as above
Sequence of PCMT1 (P22061 2-227 limits assumed): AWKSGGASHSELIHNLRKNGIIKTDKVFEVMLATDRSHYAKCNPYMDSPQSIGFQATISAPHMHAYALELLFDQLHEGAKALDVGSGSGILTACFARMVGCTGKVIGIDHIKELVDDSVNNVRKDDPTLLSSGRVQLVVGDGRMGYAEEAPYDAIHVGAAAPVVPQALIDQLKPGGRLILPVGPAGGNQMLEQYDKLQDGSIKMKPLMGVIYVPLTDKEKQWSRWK

RPL36A = RPL36A (UniProt P83881); assay: as above
RPL36 = RPL36 (UniProt Q9Y3U8); assay: as above
HBA1 = HBA1 (UniProt P69905); assay: as above
Sequence of HBA1 (P69905 2-142 limits assumed): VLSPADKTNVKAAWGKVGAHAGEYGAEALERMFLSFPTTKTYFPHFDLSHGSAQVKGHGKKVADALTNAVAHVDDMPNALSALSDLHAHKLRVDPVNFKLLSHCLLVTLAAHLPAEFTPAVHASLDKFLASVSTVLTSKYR

ACTR3 = ACTR3 (UniProt P61158); assay: as above
SSR1 = SSR1 (UniProt P43307); assay: as above
RPS17 = RPS17 (UniProt P08708); assay: as above
SPRR2E = SPRR2E (UniProt P22531); assay: as above
Sequence of SPRR2E (P22531 whole entry): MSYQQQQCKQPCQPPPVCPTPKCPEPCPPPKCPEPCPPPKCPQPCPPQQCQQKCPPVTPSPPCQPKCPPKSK

Sequence of TM9SF1 (human) (O15321 other isoform, or with tags, fused parts or gaps limits assumed): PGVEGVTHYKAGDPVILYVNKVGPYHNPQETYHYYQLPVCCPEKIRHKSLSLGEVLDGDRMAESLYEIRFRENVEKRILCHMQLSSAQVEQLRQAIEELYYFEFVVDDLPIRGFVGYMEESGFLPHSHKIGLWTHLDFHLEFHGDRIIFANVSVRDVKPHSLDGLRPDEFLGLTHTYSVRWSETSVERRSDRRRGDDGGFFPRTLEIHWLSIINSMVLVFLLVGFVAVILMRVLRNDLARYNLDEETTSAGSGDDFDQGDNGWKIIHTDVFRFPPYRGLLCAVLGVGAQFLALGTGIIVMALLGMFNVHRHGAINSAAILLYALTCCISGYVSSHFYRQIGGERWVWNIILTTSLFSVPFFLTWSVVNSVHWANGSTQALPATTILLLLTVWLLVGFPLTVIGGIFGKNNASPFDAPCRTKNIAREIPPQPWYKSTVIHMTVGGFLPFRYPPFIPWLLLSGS

C-terminal FLAG tagged B3GNT2 (from UniProt Q9NY97 1-397) (enzyme)
co-IP mass spectrometry count (RPL28 (human)): 16 | co-IP mass spectrometry count (RACK1 (human)): 3 | co-IP/MS count, C-term flag (TM9SF1 (human)): 4 | co-IP mass spectrometry count (RPS27A (human)): 27 | co-IP mass spectrometry count (GEMIN4 (human)): 5 | co-IP mass spectrometry count (EIF3A (human)): 3 | co-IP/MS count, C-term flag (XPO1 (human)): 2 | co-IP mass spectrometry count (LCN1 (human)): 11 | co-IP mass spectrometry count (SERPINB3 (human)): 9 | co-IP mass spectrometry count (RPL8 (human)): 15 | co-IP/MS count, C-term flag (RUVBL2 (human)): 4 | co-IP/MS count, C-term flag (SPARC (human)): 4 | co-IP/MS count, C-term flag (TTC13 (human)): 4 | co-IP/MS count, C-term flag (LUC7L3 (human)): 3 | co-IP/MS count, C-term flag (MMP14 (human)): 2 | co-IP/MS count, C-term flag (RPS24 (human)): 8 | co-IP mass spectrometry count (TELO2 (human)): 3 | co-IP mass spectrometry count (TBL2 (human)): 5 | co-IP/MS count, C-term flag (PURA (human)): 3 | co-IP/MS count, C-term flag (RPL7A (human)): 22

IgG control (Millipore Sigma 12-371) (antibody)
co-IP mass spectrometry count (ATP5F1B): 0 | co-IP mass spectrometry count (YWHAZ): 0 | co-IP mass spectrometry count (RPN1): 0 | co-IP mass spectrometry count (STRAP): 0 | co-IP mass spectrometry count (SERPINB12): 0 | co-IP mass spectrometry count (RPL35A): 0 | co-IP mass spectrometry count (CTSD): 3 | co-IP mass spectrometry count (UBA52): 5 | co-IP mass spectrometry count (RPL31): 0 | co-IP mass spectrometry count (RPS11): 8 | co-IP mass spectrometry count (ATXN2L): 3 | co-IP mass spectrometry count (PCMT1): 0 | co-IP mass spectrometry count (RPL36A): 2 | co-IP mass spectrometry count (RPL36): 0 | co-IP mass spectrometry count (HBA1): 3 | co-IP mass spectrometry count (ACTR3): 3 | co-IP mass spectrometry count (SSR1): 0 | co-IP mass spectrometry count (RPS17): 3 | co-IP mass spectrometry count (SPRR2E): 3
